Kd and stoichiometry (Tat molecules per Env trimer) (Tat molecules per Env trimer) data for one substance are collected here from US20080300385A1.

Test [1] concerns the target Tat protein from HIV-1 strain BH10 (HIV-1 strain BH10) (UniProt P69697). Description: SPR, kinetic experiment (FIG. 5B).
Test [2] has the same target. Nature of the test: ITC in free solution (FIG. 7).

The Kd is a measure of binding affinity in units of concentration. Read a high Kd as lower affinity. With “gp140 Env protein from HIV-1 strain SF162 (o-gp140SF162), trimer (from UniProt P19550 32-675)”, in test [1], the Kd worked out at 37 nM. The substance further registered a stoichiometry (Tat molecules per Env trimer) (Tat molecules per Env trimer) in test [2] of 3.
